Drawing on paper PMC6237740, this text covers Kd and binding signal for three substances.

Common to all, as to experiment: fluorescence anisotropy competition
For orientation: Fluorescence polarisation rises when a labelled molecule tumbles more slowly, as on binding a larger partner.

Data set [1] deals with Ets-1 ETS domain WT (Mus musculus). Conditions: normo-osmotic; 10 mM TrisHCl pH 7.4, 0.15 M NaCl, 0.1 mg/ml BSA, betaine to set osmolality (0.3 osm without stress); Cy3-DNA probe displaced by unlabeled DNA; binding ….
The subject of data set [2] is PU.1 ETS domain WT (PU.1ΔN167). To be noted: 10 mM TrisHCl pH 7.4, 0.15 M NaCl, 0.1 mg/ml BSA, betaine to set osmolality (0.3 osm without stress), Cy3-DNA probe displaced by unlabeled DNA.
The test system of the next data set is PU.1/Ets-1 H2 chimera. Conditions: 10 mM TrisHCl pH 7.4, 0.15 M NaCl, 0.1 mg/ml BSA, betaine to set osmolality (0.3 osm without stress); Cy3-DNA probe displaced by unlabeled DNA; binding ….
Another data set deals with PU.1/Ets-1 H3 chimera. To be noted: 10 mM TrisHCl pH 7.4, 0.15 M NaCl, 0.1 mg/ml BSA, betaine to set osmolality (0.3 osm without stress); Cy3-DNA probe displaced by unlabeled DNA; binding ….
The next data set concerns PU.1/Ets-1 S3 chimera. To be noted: 0.1 mg/ml BSA, betaine to set osmolality (0.3 osm without stress), Cy3-DNA probe displaced by unlabeled DNA.
The next data set has as its system PU.1/Ets-1 loop chimera. To be noted: 10 mM TrisHCl pH 7.4, 0.15 M NaCl, 0.1 mg/ml BSA, betaine to set osmolality (0.3 osm without stress); Cy3-DNA probe displaced by unlabeled DNA; binding ….
Another data set deals with PU.1/Ets-1 wing chimera. Conditions: 10 mM TrisHCl pH 7.4, 0.15 M NaCl, 0.1 mg/ml BSA, betaine to set osmolality (0.3 osm without stress); Cy3-DNA probe displaced by unlabeled DNA; binding ….

For orientation: Kd means the equilibrium constant for the complex coming apart. For “AGC high-affinity PU.1 site, 23-bp duplex”, the Kd in data set [1] was determined as 0.6 nM; in data set [2] (binding …) it was 0.34 nM; with PU.1/Ets-1 H2 chimera, 0.8 nM; with PU.1/Ets-1 H3 chimera it was 22 nM; in the data set on PU.1/Ets-1 S3 chimera (10 mM TrisHCl pH 7.4, 0.15 M NaCl, binding …), 0.49 nM; with PU.1/Ets-1 loop chimera it was 1.3 nM. In the data set on PU.1/Ets-1 wing chimera, the equilibrium dissociation constant (Kd) came out at 1.6 nM.

SC1 optimal Ets-1 site: in data set [1], the equilibrium dissociation constant (Kd) was 0.17 nM.

For low-affinity PU.1 site, 23-bp duplex, the binding signal in data set [2] (may replot earlier WT data, scale: fold affinity vs S3 chimera on the same low-affinity DNA) turned out to be 0.2; in the data set on PU.1/Ets-1 S3 chimera (weaker than S3 chimera on N1, 10 mM TrisHCl pH 7.4, 0.15 M NaCl, scale: fold stronger than WT PU.1 on the same low-affinity DNA), 5.
